Assay results from patent publication US8106168B2, “Metalloproteinase binding proteins” (Dyax Corp., priority 2005, dated 2012).

B1: M0039-G05: Fab that binds human MMP-14; DNA LV SEQ ID NO: 74, HV SEQ ID NO: 75 (antibody, V domains shown)
VL: QDIQMTQSPSFLSASIGDRVTITCRASQGINTFLAWYQQKPGIAPKLLIYAASTLQSGVPSRFSGSGSGTEFTLTISSLQPEDFATYYCQQLNGYRSFGQGTRLEMK
VH: EVQLLESGGGLVQPGGSLRLSCAASGFTFSNYEMGWVRQAPGKGLEWVSWIYSSGGYTSYADSVKGRFTISRDNSKNTLYLQMNSLRAEDTATYYCARDPYYYDSSGYYYYYYYYMDVWGKGTTVTVSS
modifications: Synthetically generated oligonucleotide
B2: M0039-G07: Fab that binds human MMP-14; DNA LV SEQ ID NO: 76, HV SEQ ID NO: 77 (antibody, V domains shown)
VL: QDIQMTQSPGTLSLSPGERATLSCRASQSVNSRFLAWYQQKPGQAPRLLIYSTSTRATGIPDRFSGSGSGTDFTLTISRLEPEDFAVYYCQRYGSSPTWTFGQGTKVEIK
VH: EVQLLESGGGLVQPGGSLRLSCAASGFTFSRYVMDWVRQAPGKGLEWVSRISPSGGHTDYADSVKGRFTISRDNSKNTLYLQMNSLRAEDTAVYYCARETVRGVYFDYWGQGTLVTVSS
modifications: Synthetically generated oligonucleotide
B3: M0040-A03: Fab that binds human MMP-14; DNA LV SEQ ID NO: 80, HV SEQ ID NO: 81 (antibody, V domains shown)
VL: QDIQMTQSPSFVSASVGDRVTISCRASHNINTWLAWYQQKPGKAPNLLIYSASNLQGGVPSRFSGSGSGTDFTLTISSLQPGDFATYYCQQASSFPITFGQGTRLEIK
VH: EVQLLESGGGLVQPGGSLRLSCAASGFTFSNYMMIWVRQAPGKGLEWVSWISPSGGYTFYADSVKGRFTISRDNSKNTLYLQMNSLRAEDTAVYYCARGYYDILTGMVGGGAFDIWGQGTTVTVSS
modifications: Synthetically generated oligonucleotide
B4: M0040-B06: Fab that binds human MMP-14; DNA LV SEQ ID NO: 88, HV SEQ ID NO: 89 (antibody, V domains shown)
VL: QYELTQPPSASGTPGQRVTISCSGSSSNIGRNYVYWYQQVPGTAPKLLIYSNNQRPSGVPDRFSGSKSGTSASLVISGLRSEDEADYYCAAWDASLRGVFGGGTKLTVL
VH: EVQLLESGGGLVQPGGSLRLSCAASGFTFSVYPMVWVRQAPGKGLEWVSYISPSGGFTFYADSVKGRFTISRDNSKNTLYLQMNSLRAEDTAVYYCARVPGGSRQDFDIWGQGTMVTVSS
modifications: Synthetically generated oligonucleotide
B5: M0040-C10: Fab that binds human MMP-14; DNA LV SEQ ID NO: 92, HV SEQ ID NO: 93 (antibody, V domains shown)
VL: QDIQMTQSPATLSASVGDRVTITCRASQTISTYLNWYQHKPGKAPELLIYAASSLQSGVPSRFSGSGSGTDFTLRISSLQPEDFATYYCQQSYTTPWTFGQGTKVEIK
VH: EVQLLESGGGLVQPGGSLRLSCAASGFTFSRYMMVWVRQAPGKGLEWVSSIVSSGGKTWYADSVKGRFTISRDNSKNTLYLQMNSLRAEDTAMYYCARWDWGPFDYWGQGTLVTVSS
modifications: Synthetically generated oligonucleotide
B6: M0040-D08: Fab that binds human MMP-14; DNA LV SEQ ID NO: 94, HV SEQ ID NO: 95 (antibody, V domains shown)
VL: QSALTQSPSASASLGSSVKLTCTLASEHSGYIIAWHQQQPGKAPRFLMKLDGTGNFNKGSGVPDRFSGYSSGADRYLTISNLQSEDEADYYCETWDSTTLWVFGGGTKLTVL
VH: EVQLLESGGGLVQPGGSLRLSCAASGFTFSHYGMTWVRQAPGKGLEWVSSIVPSGGYTAYADSVKGRFTISRDNSKNTLYLQMNSLRAEDTAVYYCTTGLSSSGTRWFDAWGQGTLVTVSS
modifications: Synthetically generated oligonucleotide

Target: MMP-14 (Homo sapiens, UniProt P50281)
Experiment: Selection and phage ELISA screening of anti-MMP-14 Fabs
Assay type: binding
Conditions: Fab from FAB310 phage display library
Description: Strategy I: A 100-fold excess of the FAB310 library (e.g., an amount of the library that should contain 100 copies of each library member) was depleted of streptavidin-binding antibodies by incubating the library with 200 μL of streptavidin beads for 1 hour at room temperature (RT) with rotation. 500 nM of biotinylated MMP-14 was coupled to streptavidin beads by incubation with 100 μL of streptavidin beads. The MMP-14 beads were then incubated with the streptavidin-depleted library for 1 hour at RT with rotation. The beads were then rinsed three times with 2% MTRIS/0.1% Tween, transferred to a fresh tube and washed an additional three times with 2% MTRIS/0.1% Tween, and transferred to a fresh tube and washed a final time with Round 1 TRIS buffer (50 mM TRIS; 50 mM CaCl2; 150 mM NaCl, pH 7.5).
MMP-14 binding antibodies were eluted from the beads by re-suspension in 1 mL 2% MTRIS containing 2.5 μM TIMP-2 and incubation for 1 hour at RT with rotation. The beads were then washed three times with 2% MTRIS/0.1% Tween, transferred to a fresh tube and washed three times with TRIS/0.1% Tween, and transferred to a fresh tube and washed a final time with TRIS. 1 mL output was used for infection of 9 mL TG1 bacteria (grown to OD600=0.5). The beads were further eluted by suspension in 1 mL 100 mM TEA for 10 minutes. The supernatant was neutralized with 500 μl TRIS/HCl pH 7.5. 1 mL of the second elution was used for infection of 9 mL TG1 bacteria (grown to OD600=0.5).
Two additional rounds of selection were carried out under the same conditions as the first round, except that the streptavidin beads were loaded with 100 nM biotinylated MMP-14 and the number of washes were doubled (6 times with 2% MTRIS/0.1% Tween, 6 times with TRIS/0.1% Tween and 2 times with TRIS), and Round 2/3 Tris buffer (50 mM TRIS; 5 mM CaCl2; 150 mM NaCl pH=7.5) was used for incubation and wash.
TIMP-2 was coupled to carboxylic beads, then complexed with a combination of biotinylated MMP-14 (500 nM each). The complexed beads were incubated with a 100 fold excess of FAB310 library that had been previously depleted by incubation with streptavidin beads and carboxylic beads. Elution/washing was carried out as for Strategy I.
Two additional rounds of selection were carried out, essentially as described for Strategy I, except that only 100 nM of each of MMP-14 were used in the bead complexes.
384-well plates were coated with biotinylated BSA (2 μg/ml in 50 mM TRIS; 5 mM CaCl2; 150 mM NaCl, pH 7.5), then washed 3 times with 50 mM TRIS; 5 mM CaCl2; 150 mM NaCl, pH 7.5; 0.1% Tween. Streptavidin was captured on the coated plates by incubation with 10 μg/mL streptavidin in 50 mM TRIS; 5 mM CaCl2; 150 mM NaCl pH 7.5; 0.5% Gelatin, followed by a wash with 50 mM TRIS; 5 mM CaCl2; 150 mM NaCl pH=7.5; 0.1% Tween. On the day the assay was to be performed, biotinylated MMP-14 (1 μg/ml) was captured in 50 mM TRIS; 5 mM CaCl2; 150 mM NaCl, pH 7.5.
95 clones were picked from each of Round 2 and Round 3 of each selection strategy, producing 12 masterplates. ELISA was run on the MiniTrak-5 deck according to SOP.

| Molecule | bind to human MMP-14 |
| --- | --- |
| B1 | bind to human MMP-14 |
| B2 | bind to human MMP-14 |
| B3 | bind to human MMP-14 |
| B4 | bind to human MMP-14 |
| B5 | bind to human MMP-14 |
| B6 | bind to human MMP-14 |
